Measurements reported in US20160067305A1 (UNIVERSITY OF HONG KONG, published 2016).

Target: T1, FLAG-tagged SIRT1 (ectopically expressed in HEK293 cells) (UniProt Q96EB6 1-747, limits assumed)
T1 construct: Immunoprecipitated from lysate of transfected HEK293 cells; also called FLAG-SIRT1; not shown: FLAG tag
T1 sequence (looked up): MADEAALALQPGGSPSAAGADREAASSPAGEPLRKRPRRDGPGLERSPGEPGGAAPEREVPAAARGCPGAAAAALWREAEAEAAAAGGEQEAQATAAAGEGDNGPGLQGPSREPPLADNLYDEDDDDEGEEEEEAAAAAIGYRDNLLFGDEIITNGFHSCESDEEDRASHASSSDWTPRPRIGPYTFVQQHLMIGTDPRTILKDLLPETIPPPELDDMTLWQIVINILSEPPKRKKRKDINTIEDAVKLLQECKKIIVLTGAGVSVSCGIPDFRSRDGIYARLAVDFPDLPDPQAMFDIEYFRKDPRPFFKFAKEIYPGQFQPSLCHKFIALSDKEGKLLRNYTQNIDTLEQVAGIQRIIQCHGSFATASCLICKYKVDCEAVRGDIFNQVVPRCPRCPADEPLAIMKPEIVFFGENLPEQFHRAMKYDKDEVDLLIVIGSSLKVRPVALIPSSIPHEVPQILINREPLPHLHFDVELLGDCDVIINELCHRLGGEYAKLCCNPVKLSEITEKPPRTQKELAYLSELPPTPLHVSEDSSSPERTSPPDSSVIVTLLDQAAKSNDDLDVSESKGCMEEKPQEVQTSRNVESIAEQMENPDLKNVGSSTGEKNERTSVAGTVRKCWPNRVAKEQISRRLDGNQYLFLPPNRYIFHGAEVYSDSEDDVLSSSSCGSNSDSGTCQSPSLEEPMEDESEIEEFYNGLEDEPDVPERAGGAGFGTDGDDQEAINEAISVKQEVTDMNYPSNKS
Test: co-immunoprecipitation in transfected HEK293 cells, Western blot (FIG. 1F)
Description: This was further confirmed by co-immunoprecipitation in HEK293 cells expressing FLAG-SIRT1 together with either lamin A or lamin C.

binding result: no binding
B1: lamin C (ectopically expressed in HEK293 cells) (other, UniProt P02545-2 1-572, looked up)
chain: METPSQRRATRSGAQASSTPLSPTRITRLQEKEDLQELNDRLAVYIDRVRSLETENAGLRLRITESEEVVSREVSGIKAAYEAELGDARKTLDSVAKERARLQLELSKVREEFKELKARNTKKEGDLIAAQARLKDLEALLNSKEAALSTALSEKRTLEGELHDLRGQVAKLEAALGEAKKQLQDEMLRRVDAENRLQTMKEELDFQKNIYSEELRETKRRHETRLVEIDNGKQREFESRLADALQELRAQHEDQVEQYKKELEKTYSAKLDNARQSAERNSNLVGAAHEELQQSRIRIDSLSAQLSQLQKQLAAKEAKLRDLEDSLARERDTSRRLLAEKEREMAEMRARMQQQLDEYQELLDIKLALDMEIHAYRKLLEGEEERLRLSPSPTSQRSRGRASSHSSQTQGGGSVTKKRKLESTESRSSFSQHARTSGRVAVEEVDEEGKFVRLRNKSNEDQSMGNWQIKRQNGDDPLLTYRFPPKFTLKAGQVVTIWAAGAGATHSPPTDLVWKAQNTWGCGNSLRTALINSTGEEVAMRKLVRSVTVVEDDEDEDGDDLLHHHHVSGSRR
